Biological target: human PD-1 (residues 33–150, Cys93 exchanged to serine) (human, UniProt Q15116 33-150, Cys93 exchanged to serine, uniform 15N labelling)
Experiment: NMR titration; 1H-15N HMQC, 300K; AIDA: 15N-labeled PD-1 (0.2 mM) slightly overtitrated with unlabeled PD-L1; for the mutants also NMR-monitored direct titration; PBS pH 7.4 (PD-L1) or 25 mM sodium phosphate, 100 mM NaCl pH 6.4 (PD-1)
Conditions: both partners purified

Sequence of human PD-1 (residues 33–150, Cys93 exchanged to serine) (Q15116 other isoform, or with tags, fused parts or gaps Cys93 exchanged to serine | Cys93 exchanged to serine): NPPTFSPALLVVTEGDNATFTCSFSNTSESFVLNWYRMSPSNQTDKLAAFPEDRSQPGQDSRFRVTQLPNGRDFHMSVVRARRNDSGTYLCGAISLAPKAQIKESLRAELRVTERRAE

B1: human PD-L1 (residues 18–134, C-terminal His-tag) (domain or fragment)
chain: AFTVTVPKDLYVVEYGSNMTIECKFPVEKQLDLAALIVYWEMEDKNIIQFVHGEEDLKVQHSSYRQRARLLKDQLSLGNAALQITDVKLQDAGVYRCMISYGGADYKRITVKVNAPY
modifications: NTA-Atto 647 N fluorescent dye on the His-tag (flow cytometry only); uniform 15N labelling (NMR titration with compounds only)
notes: PD-L1, human, residues 18-134 (Ig-like V-type domain); also called sPD-L1; soluble PD-L1; source: expressed and purified as described previously [26]; 15N labelling in M9 minimal medium; not shown: His-tag, C-terminal, kept
  binding result: binds
